Assay results published in publication PMC12708868.

Target: 1G4 TCRαβ with TCRβ T130C/H172C, on J8Zb2m-α-β- reporter T cells (human)

How did the peak NFAT reporter response to HLA–antigen tetramers relative to wild type turn out when “iTAg tetramer/APC – HLA-A*02:01 NY-ESO-1 (…) (from UniProt P61769 21-119) (peptide-MHC)” was run?
Its peak NFAT reporter response to HLA–antigen tetramers relative to wild type is 50 % reduction.
